Results reported in article PMC5675407, “Sugar analog synthesis by in vitro biocatalytic cascade: A comparison of alternative enzyme complements for dihydroxyacetone phosphate production as a precursor to rare chiral sugar synthesis” (PLoS ONE, 2017).

B1: AceKMs (Mycolicibacterium smegmatis MC2 155) (protein)
chain: MTVLVVNSGSSSLKYAVVRPASGEFLADGIIEEIGSGAVPDHDAALRAAFDELAAAGLHLEDLDLKAVGHRMVHGGKTFYKPSVVDDELIAKARELSPLAPLHNPPAIKGIEVARKLLPDLPHIAVFDTAFFHDLPAPASTYAIDRELAETWHIKRYGFHGTSHEYVSQQAAIFLDRPLESLNQIVLHLGNGASASAVAGGKAVDTSMGLTPMEGLVMGTRSGDIDPGVIMYLWRTAGMSVDDIESMLNRRSGVLGLGGASDFRKLRELIESGDEHAKLAYDVYIHRLRKYIGAYMAVLGRTDVISFTAGVGENVPPVRRDALAGLGGLGIEIDDALNSAKSDEPRLISTPDSRVTVLVVPTNEELAIARACVGVV
notes: recombinant, His-tagged (pDEST17 or pETCC2), E. coli
B2: GlpKCb (Clostridium beijerinckii NCIMB 8052) (protein)
chain: MKKYILALDQGTTSSRAIIFDKEQNILGVSQKEFTQIYPNQGWVEHNPLEIWASQYGVLQEVIAKTNITQEEVAAIGITNQRETTIVWDKNTGEPVYNAIVWQCRRTAGIIEELKLDKEFSEYVKENTGLLLDAYFSATKIKWILDNVEGARERAEKGELLFGTVDTWLVWKLTNGKVHVTDYTNASRTMLYNIKELRWDERILEKLNIPKSMLPEVKNSSEVYGYTNLGGTGGVRVPIAGMAGDQQCALFGQTCFEEGSVKNTYGTGCFLLMNTGEKMIHSKNGLVSTIAVGIDGKVQYALEGSVFVGGAVIQWIRDELKLVTDAADTEYFAQKVEDNGGVYVVPAFTGLGAPYWDMYARGAIFGLTRGANRNHIIRAALESIAYQSKDLIDAMQEDAGCKLTRLKVDGGASRNNLLMQFQADITGAEVVRPIITETTALGAAYLAGLAVGFWKSKEEIAEKWAVSQSYSPNLAEEKKEKLYKGWKKAVKRAEGWEEE
notes: recombinant, His-tagged (pDEST17 or pETCC2), E. coli, Ni and size exclusion purified

Columns and labels:
Experiment in all cases: purified protein
[1] = substrate: CC(=O)OP(=O)(O)O; format: biochemical, Mycolicibacterium smegmatis; details: ADP in excess, Mg2+, room temperature, buffer as for glycerol kinase (pH 9.2)
Description: (§1) HPLC of ADP and ATP on AceKMs

[2] = substrate: Nc1ncnc2c1ncn2[C@@H]1O[C@H](COP(=O)(O)OP(=O)(O)O)[C@@H](O)[C@H]1O; format: biochemical, Mycolicibacterium smegmatis; details: acetyl phosphate in excess, Mg2+, room temperature, buffer as for glycerol kinase (pH 9.2)
Description: as §1

[3] = substrate: Nc1ncnc2c1ncn2[C@@H]1O[C@H](COP(=O)(O)OP(=O)(O)OP(=O)(O)O)[C@@H](O)[C@H]1O; format: biochemical, Clostridium beijerinckii; details: glycerol in excess, 10 mM MgCl2, 50 mM NaHCO3 pH 9.2, room temperature
Description: (§2) HPLC of ADP and ATP on GlpKCb

[4] = substrate: OCC(O)CO; format: biochemical, Clostridium beijerinckii; details: ATP in excess, 10 mM MgCl2, 50 mM NaHCO3 pH 9.2, room temperature
Description: as §2

| Protein | Km [1] [µM] | kcat [1] [s⁻¹] | kcat/Km [1] [M⁻¹ s⁻¹] | Km [2] [µM] | kcat [2] [s⁻¹] | kcat/Km [2] [M⁻¹ s⁻¹] | Km [3] [µM] | kcat [3] [s⁻¹] | kcat/Km [3] [M⁻¹ s⁻¹] | Km [4] [µM] | kcat [4] [s⁻¹] | kcat/Km [4] [M⁻¹ s⁻¹] |
| --- | --- | --- | --- | --- | --- | --- | --- | --- | --- | --- | --- | --- |
| B1 | 390 ± 8 | 1103 | 2.8e+06 | 113 ± 9 | 1100 | 9.8e+06 |  |  |  |  |  |  |
| B2 |  |  |  |  |  |  | 135 ± 16 | 93 | 690000 | 356 ± 27 | 93 | 260000 |
